Test results reported in patent publication US20220411495A1, “POSITIVE ALLOSTERIC MODULATORS OF THE CALCIUM-SENSING RECEPTOR” (VIB VZW, priority 2019, published 2022).
Values belong to the molecule of their own block, whether it stands above or below them.

What was measured:
[1] = biological target: T1, extracellular Venus flytrap domain of CaSR (Homo sapiens, UniProt P41180); experiment: Surface plasmon resonance on isolated purified Venus flytrap domain; format: binding
T1 sequence (P41180 20-610 limits assumed): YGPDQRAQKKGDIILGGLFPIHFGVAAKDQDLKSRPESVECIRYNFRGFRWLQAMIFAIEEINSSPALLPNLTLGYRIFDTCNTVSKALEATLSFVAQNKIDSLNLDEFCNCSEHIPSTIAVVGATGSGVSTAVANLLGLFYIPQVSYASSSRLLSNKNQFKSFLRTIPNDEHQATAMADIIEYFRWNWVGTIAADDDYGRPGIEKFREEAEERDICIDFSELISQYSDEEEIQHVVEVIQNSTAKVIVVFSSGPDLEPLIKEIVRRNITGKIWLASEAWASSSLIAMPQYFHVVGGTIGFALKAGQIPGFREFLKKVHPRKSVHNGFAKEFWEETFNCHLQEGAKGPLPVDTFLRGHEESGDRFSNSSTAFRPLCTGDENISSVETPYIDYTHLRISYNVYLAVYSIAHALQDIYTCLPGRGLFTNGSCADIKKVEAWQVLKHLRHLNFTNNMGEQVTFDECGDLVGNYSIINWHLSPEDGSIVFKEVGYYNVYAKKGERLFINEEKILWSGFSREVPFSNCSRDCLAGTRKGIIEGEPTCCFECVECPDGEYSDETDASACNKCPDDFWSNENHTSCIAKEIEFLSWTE

[2] = biological target: T2, human CaSR wild type (hCaSR WT) (Homo sapiens, UniProt P41180, E1011Q); experiment: Advanced phospho-ERK1/2 assay, HEK293 HA-hCaSR WT cells; format: cell-based; conditions: 5 μM nanobody, EC20 Ca2+
T2 construct: mGlu5 signal peptide (N, cleaved yes); expressed in transfected cells
T2 sequence (P41180 20-1078 E1011Q): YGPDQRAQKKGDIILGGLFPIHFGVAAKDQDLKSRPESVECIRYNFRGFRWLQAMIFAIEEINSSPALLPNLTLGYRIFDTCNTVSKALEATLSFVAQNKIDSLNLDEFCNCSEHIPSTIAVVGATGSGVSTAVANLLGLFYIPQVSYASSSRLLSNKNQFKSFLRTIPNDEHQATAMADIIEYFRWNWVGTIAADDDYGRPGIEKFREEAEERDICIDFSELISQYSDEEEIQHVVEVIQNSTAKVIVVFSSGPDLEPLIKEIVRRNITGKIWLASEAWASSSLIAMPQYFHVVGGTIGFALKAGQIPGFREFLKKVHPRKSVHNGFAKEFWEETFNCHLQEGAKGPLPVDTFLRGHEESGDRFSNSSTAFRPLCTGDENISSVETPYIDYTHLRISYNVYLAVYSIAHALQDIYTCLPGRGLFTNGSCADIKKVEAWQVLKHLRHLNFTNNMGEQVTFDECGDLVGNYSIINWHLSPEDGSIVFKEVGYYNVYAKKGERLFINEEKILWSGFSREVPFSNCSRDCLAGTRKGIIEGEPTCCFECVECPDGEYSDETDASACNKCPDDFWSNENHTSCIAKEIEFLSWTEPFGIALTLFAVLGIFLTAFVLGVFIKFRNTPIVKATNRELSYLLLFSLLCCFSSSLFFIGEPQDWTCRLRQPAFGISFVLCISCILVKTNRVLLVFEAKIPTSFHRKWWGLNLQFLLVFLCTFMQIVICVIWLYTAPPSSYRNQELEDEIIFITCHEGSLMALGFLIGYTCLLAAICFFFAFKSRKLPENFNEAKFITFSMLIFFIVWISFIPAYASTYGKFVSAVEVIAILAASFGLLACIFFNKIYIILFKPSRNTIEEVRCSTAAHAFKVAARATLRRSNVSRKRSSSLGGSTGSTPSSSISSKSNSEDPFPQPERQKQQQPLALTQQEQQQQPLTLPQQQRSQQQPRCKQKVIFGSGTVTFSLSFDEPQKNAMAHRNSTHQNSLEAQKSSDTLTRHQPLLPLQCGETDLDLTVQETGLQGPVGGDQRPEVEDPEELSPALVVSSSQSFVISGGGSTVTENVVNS
Description: Nanobodies were successfully purified by immobilized metal ion affinity chromatography (IMAC) and size exclusion chromatography (SEC) prior to pharmacological characterization (FIG. 1). Each nanobody was initially screened for Gq/11 activity in the Cisbio IP1 accumulation assay as this is the primary signaling pathway of CaSR (Chavez-Abiega et al., 2020). Whole HEK293 HA-hCaSR WT cells were pre-incubated for 30 minutes at 37° C. with a fixed nanobody concentration (5 μM) prior to stimulation with the endogenous ligand Ca^2+. The well characterized positive allosteric modulator (PAM) chemical NPS R-568 and negative allosteric modulator (NAM) chemical NPS 2143 were added as reference compounds. […] No nanobodies with agonist or NAM activity were observed when all nanobodies screened in the absence or in the presence of EC80 Ca^2+, respectively (FIGS. 4A and 4B). […] Except for CaSR Nb5, the same nanobodies acted as PAMs when ERK1/2 phosphorylation was measured in the presence of EC20 Ca^2+ (FIG. 2B). Again, none of the nanobodies elicited an agonist or NAM response (FIGS. 5B and 5C).
Phosphorylation of ERK1/2 at T202 and Y204 was measured with the HTRF® Advanced Phospho-ERK1/2 assay (Cisbio Bioassays, Codolet, France). […] Upon excitation at 340 nm, emission at 615 and 665 nm was measured on an EnVision multimode plate reader (PerkinElmer, Waltham, Mass., USA). […]

- Binding to isolated Venus flytrap domain (SPR) [1]: binds
B1: Nb4: llama-derived CaSR-specific nanobody acting as PAM, SEQ ID NO:5 (protein)
VHH: QVQLVESGGGLVQAGGSLRLSCAASGRTFSTYRMGWFRQGLGKEREFVAAITANGVRTFYTDSVKGRFTISRDNAKNTLYLQMNSLQPDDTAVYLCAARRKGIFTVQQAQDITDWDYWGQGTQVTVSS
modifications: CaSR Nb4
- Dependence of binding affinity on endogenous ligands (SPR) ([1]; Ca2+ and/or L-Trp): synergistically increases upon the presence of both ligands

- PAM activity in phospho-ERK1/2 assay [2]: could not be confirmed
B2: Nb5: llama-derived CaSR-specific nanobody, weakest PAM, SEQ ID NO:8 (protein)
VHH: QVQLVESGGRLVQDGGSLRLSCAASGLTFSDYSMGWFRQVPGKEREFVAVIRRSNDSTYYADFVKGRFTISRDNAKNTVYLQMNSLQPEDTAVYSCAADRGGVGLTSAQTYAYWGQGTQVTVSS
modifications: CaSR Nb5
